Molecular target: the molecule itself
Assay: native gel or EMSA; EMM assembly assay: 35S-labelled in vitro translated substrate incubated with EMM at 30°C for 15, 45 or 90 min, EMM solubilised with 1.5% DDM, BN-PAGE, radio-imaging; homotrimer at approximately 160 kDa

Row | Protein | stoichiometry N
1 | LamB (natural protein, UniProt P02943 1-446, looked up, 35S-methionine, LamB, the 18-stranded outer membrane protein used as a model substrate; Gunasinghe et al., 2018; Thewasano et al., 2023) for the substrate constructs; also called trimeric-LamB; source: in vitro translated in rabbit reticulocyte lysate with 35S-methionine, assembled into EMM) MMITLRKLPLAVAVAAGVMSAQAMAVDFHGYARSGIGWTGSGGEQQCFQTTGAQSKYRLGNECETYAELKLGQEVWKEGDKSFYFDTNVAYSVAQQNDWEATDPAFREANVQGKNLIEWLPGSTIWAGKRFYQRHDVHMIDFYYWDISGPGAGLENIDVGFGKLSLAATRSSEAGGSSSFASNNIYDYTNETANDVFDVRLAQMEINPGGTLELGVDYGRANLRDNYRLVDGASKDGWLFTAEHTQSVLKGFNKFVVQYATDSMTSQGKGLSQGSGVAFDNEKFAYNINNNGHMLRILDHGAISMGDNWDMMYVGMYQDINWDNDNGTKWWTVGIRPMYKWTPIMSTVMEIGYDNVESQRTGDKNNQYKITLAQQWQAGDSIWSRPAIRVFATYAKWDEKWGYDYTGNADNNANFGKAVPADFNGGSFGRGDSDEWTFGAQMEIWW | 3
2 | OmpF (natural protein, UniProt P02931 1-362, looked up, 35S-methionine, OmpF, the 16-stranded outer membrane protein used as a model substrate; Gunasinghe et al., 2018; Thewasano et al., 2023) for the substrate constructs; source: in vitro translated in rabbit reticulocyte lysate with 35S-methionine, assembled into EMM) MMKRNILAVIVPALLVAGTANAAEIYNKDGNKVDLYGKAVGLHYFSKGNGENSYGGNGDMTYARLGFKGETQINSDLTGYGQWEYNFQGNNSEGADAQTGNKTRLAFAGLKYADVGSFDYGRNYGVVYDALGYTDMLPEFGGDTAYSDDFFVGRVGGVATYRNSNFFGLVDGLNFAVQYLGKNERDTARRSNGDGVGGSISYEYEGFGIVGAYGAADRTNLQEAQPLGNGKKAEQWATGLKYDANNIYLAANYGETRNATPITNKFTNTSGFANKTQDVLLVAQYQFDFGLRPSIAYTKSKAKDVEGIGDVDLVNYFEVGATYYFNKNMSTYVDYIINQIDSDNKLGVGSDDTVAVGIVYQF | 3
